Experiments:
MDA-231 cells = assay: Tumorigenesis studies in nude mice, mammary fat pad injection of MDA-231 cells; assay type: in vivo
Description: Tumorigenesis Studies in Mice. Pooled MDA-231 stable cell lines containing either the empty vector or the MMP-1 shRNA (1×10^6 cells/100 μL HBSS) were injected into the 4th inguinal fat pad of twenty-one female, 6-week-old nude mice (NU/NU; Charles River Laboratories, Wilmington, Mass.) using 28 gauge×½″ single-use insulin needles. Mice were examined weekly until tumors were grossly apparent, then they were examined several times per week. Each tumor was measured twice with Vernier calipers, and tumor volume was calculated using the formula: 4/3πr^3. When the two measurements differed, the smaller radius measurement was squared and multiplied by the largest radius measurement. This number was then substituted for the r^3 portion of the formula.
The in vivo efficacy of the shRNA-mediated reduction of MMP-1 in the MDA-231 cells was analyzed. Nude mice were injected in the fourth inguinal mammary fat pad with MDA-231 cells containing either the empty vector or the MMP-1 shRNA. At week 6, tumors began to appear in the inguinal pad of several mice and at week 11, the mice were sacrificed.

MMP-13 mRNA = assay: Specificity qRT-PCR, MMP-13 mRNA in stable MDA-231 cells; assay type: cell-based, human; details: stable MDA-231 cell lines, 24 hour serum-free; group average ± S.D.; P=0.3 vs empty vector
Text: RNA Isolation and Real-Time RT-PCR. […] Real-Time PCR Primer Sequences. […] ID NO:7; MMP-1 reverse [NT] ID NO:8; MMP-2 forward [NT] ID NO:9; MMP-2 reverse [NT] ID NO:10; MMP-9 forward [NT] ID NO:11; MMP-9 reverse [NT] ID NO:12; MMP-13 forward [NT], SEQ ID NO:13; MMP-13 reverse [NT] ID NO:14; MMP-14 forward [NT] ID NO:15; MMP-14 reverse [NT] ID NO:16; GAPDH forward [NT] ID NO:17; GAPDH reverse [NT] ID NO:18; eGFP forward [NT] ID NO:19; eGFP reverse [NT] ID NO:20. Real-Time PCR Standards.

MMP-1 protein = assay: ELISA for MMP-1 protein in serum-free medium of stable MDA-231 cells; assay type: cell-based, human; details: for ng of MMP-1 protein per μg of total protein: average ± S.D.
Description: ELISA for MMP-1 Protein. MMP-1 protein in serum-free culture medium of stably transfected MDA-231 cells was quantified with the human MMP-1 BIOTRAK™ ELISA system that measures both latent and active enzyme (Amersham). Cells were grown in six-well culture dishes with 1 mL of serum-free medium, and after 24 hours of incubation, 100 μL of a 1:30 dilution of the medium was used for the ELISA assays. The cells remaining in the wells were lysed with 350 μL passive lysis buffer (PROMEGA®, Madison, Wis.), and 70 μl was used in a Bradford assay (BIO-RAD®, Hercules, Calif.) to determine the total protein content. The ng of MMP-1 protein from the ELISA results was normalized to μg total protein.
After initial neomycin selection and isolation of individual stable cell lines, MMP-1 mRNA and protein levels were determined using quantitative RT-PCR (qRT-PCR) and ELISA. MMP-1 mRNA levels were measured in RNA harvested from stably transfected cell lines after a 24 hour incubation in serum-free medium and were normalized to GAPDH mRNA levels. MMP-1 protein levels were measured in the serum-free media of the cell lines after 24 hours of incubation and were normalized to total protein content of the cells. The ELISA measured total (active and zymogen) forms of MMP-1 protein. […] To control for differences introduced into the cell lines during selection, these three individual cell lines for each group were pooled, and all subsequent experiments were performed on pooled cells.

[1] = tested on: interferon-responsive genes; assay: Interferon response RT-PCR assay; assay type: cell-based, human; details: pooled stable MDA-231 cell lines
Description: Interferon Response RT-PCR Assay. RNA pooled from MDA-231 ells containing empty vector or the MMP-1 shRNA were reverse-transcribed with M-MLV reverse transcriptase (INVITROGEN™) according to the manufacturer's instructions. Briefly, 3 μg of RNA, 99 ng random hexamers, and 10 nmoles of dNTP were combined to a total volume of 12 μL. The mixture was incubated at 65° C. for 5 minutes and cooled to 4° C. Four μL of 5× […], 2 μL of 0.1 M DTT, and 1 μL of RNase inhibitor A (40 U/μL) were then added to the reaction and it was incubated at 37° C. for 2 minutes. One μL of M-MLV reverse transcriptase was added to the reaction and incubated at 25° C. for 10 minutes, 37° C. for 50 minutes and 70° C. for 15 minutes. The expression levels of 11 interferon-responsive genes and GAPDH were then estimated using semi-quantitative PCR and the human interferon-response MULTIGENE-12™ RT-PCR Profiling Kit (SuperArray Bioscience Co., Frederick, Md.).
To determine whether the MMP-1 shRNA was producing a shRNA-associated interferon response in the stable cell lines, the expression levels of 11 interferon-responsive genes was compared between pools of stable cell lines (Bridge, et al. (2003) Nat. Genet. 34:263-4).

B1: MMP-1 shRNA: Vector-expressed small hairpin RNA, SEQ ID NO:1 (sense) and SEQ ID NO:2 (antisense), specific to bases 234-252 of MMP-1 mRNA (nucleic acid)
sense: GATCCCCACCAGATGCTGAAACCCTGTTCAAGAGACAGGGTTTCAGCATCTGGTTTTTTGGAAA
antisense: AGCTTTTCCAAAAAACCAGATGCTGAAACCCTGTCTCTTGAACAGGGTTTCAGCATCTGGTGGG
modifications: the letters are possibly those of the target site
average tumor size at time of sacrifice (MDA-231 cells; week 11, mean±s.e., n=10, p=0.027 vs empty vector): 272±117 mm^3
frequency of tumor formation (MDA-231 cells; week 11, n=23, p=0.11 vs empty vector (57%), Fisher's exact test): 36%
MMP-13 mRNA level (MMP-13 mRNA): 0.5 ± 0.2 copies of the target gene/pg GAPDH
ng of MMP-1 protein per μg of total protein (MMP-1 protein; Group of cell lines D1, Y2, Y7, P=0.002 vs empty vector): 0.46 ± 0.04 ng per μg of total protein
ng of MMP-1 protein per μg of total protein (MMP-1 protein; MDA-231 cell line D1): 0.49 ± 0.03 ng per μg of total protein
ng of MMP-1 protein per μg of total protein (MMP-1 protein; MDA-231 cell line Y2): 0.47 ± 0.01 ng per μg of total protein
ng of MMP-1 protein per μg of total protein (MMP-1 protein; MDA-231 cell line Y7): 0.42 ± 0.04 ng per μg of total protein
reduction in MMP-1 protein levels compared to empty vector cell lines (MMP-1 protein; three stable MDA-231 cell lines, 24 hour serum-free medium): greater than 90%
interferon response overall (11 interferon-responsive genes) [1]: no consistent upregulation of interferon-responsive gene expression
increase in expression of MxA and GBP1 compared to empty vector cell lines ([1]; semi-quantitative RT-PCR): ~50%
